Data set [1] concerns the target ClpAP complex (hexameric ClpA associated with tetradecameric ClpP) (Escherichia coli, UniProt P0ABH9 1-758; P0A6G7 15-207). In words: single-turnover stopped-flow fluorescence.
Data set [2] deals with the molecule itself. In words: SEC. Background: In gel filtration, larger molecules generally elute earlier.

Where no end group is shown, it is not given here.

ClpAP complex (hexameric ClpA associated with tetradecameric ClpP), sequence (P0ABH9 whole entry, chain 1 of 2): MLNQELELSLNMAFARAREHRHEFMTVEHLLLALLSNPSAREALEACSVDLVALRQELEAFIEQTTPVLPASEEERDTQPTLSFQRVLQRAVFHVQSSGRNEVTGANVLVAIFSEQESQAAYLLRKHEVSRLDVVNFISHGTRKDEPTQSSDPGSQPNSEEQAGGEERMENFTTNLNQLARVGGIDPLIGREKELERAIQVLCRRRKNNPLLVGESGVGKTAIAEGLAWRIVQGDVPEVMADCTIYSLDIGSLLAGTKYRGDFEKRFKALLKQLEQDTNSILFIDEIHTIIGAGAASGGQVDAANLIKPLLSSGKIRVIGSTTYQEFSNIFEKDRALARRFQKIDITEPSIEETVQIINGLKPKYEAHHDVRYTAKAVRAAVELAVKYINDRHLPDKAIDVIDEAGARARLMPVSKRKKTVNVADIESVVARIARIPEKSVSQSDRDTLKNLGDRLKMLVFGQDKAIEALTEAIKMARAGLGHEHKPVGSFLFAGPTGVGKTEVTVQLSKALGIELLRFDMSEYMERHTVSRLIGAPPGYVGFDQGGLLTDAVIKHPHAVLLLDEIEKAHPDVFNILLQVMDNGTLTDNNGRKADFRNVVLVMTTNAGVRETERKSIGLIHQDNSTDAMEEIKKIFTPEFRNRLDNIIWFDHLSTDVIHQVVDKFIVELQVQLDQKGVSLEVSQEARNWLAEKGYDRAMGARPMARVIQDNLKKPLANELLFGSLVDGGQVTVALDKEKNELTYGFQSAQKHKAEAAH
ClpAP complex (hexameric ClpA associated with tetradecameric ClpP), sequence (P0A6G7 15-207, chain 2 of 2): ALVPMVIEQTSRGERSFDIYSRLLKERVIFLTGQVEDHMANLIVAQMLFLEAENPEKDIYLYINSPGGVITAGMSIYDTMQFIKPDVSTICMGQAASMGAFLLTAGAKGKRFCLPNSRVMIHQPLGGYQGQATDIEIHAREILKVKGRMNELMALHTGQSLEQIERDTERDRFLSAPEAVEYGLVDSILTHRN

B1: N-Cys-30 polypeptide translocation substrate (peptide)
peptide: C(fluorescein‑5‑maleimide)TKSAANLKVKELRSKKKLAANDENYALAA
On to B1, for which the binding result in data set [1] is on record as “binds”.

B2: N-Cys-40 polypeptide translocation substrate (peptide)
peptide: C(fluorescein‑5‑maleimide)TGEVSFQAANTKSAANLKVKELRSKKKLAANDENYALAA
Take B2: the binding result in data set [1] is on record as “binds”.

B3: Escherichia coli ClpP (enzyme)
chain: not shown
In the case of B3, the “stoichiometry N” value in data set [2] amounted to 7.

B4: N-Cys-50 polypeptide translocation substrate (peptide)
peptide: C(fluorescein‑5‑maleimide)LILHNKQLGMTGEVSFQAANTKSAANLKVKELRSKKKLAANDENYALAA
As for B4, in data set [1], the binding result is given as “binds”.

Broadly, the stoichiometry N is the number of molecules, sites or subunits per partner or assembly.

These data come from paper PMC3918674 (Journal of molecular biology, 2013).
